US20220144936A1
Blank lines part the entries; values can stand above or below the substance they belong to.

Key:
[1] = target: recombinant human IL17A protein (human) (UniProt Q16552); assay: cell-based or functional assay
[2] = target: recombinant human IL17A/F dimer protein (SinoBiological, Inc., CT047-HNAE) (human) (UniProt Q16552); assay: cell-based or functional assay
[3] = target: recombinant human IL17A protein (human) (UniProt Q16552); assay: Octet (BLI), biotinylated IL17A, antibody 0.90-13.9 nM
[4] = target: recombinant human IL17A/F dimer protein (SinoBiological, Inc., CT047-HNAE) (human) (UniProt Q16552); assay: Octet (BLI), biotinylated IL17A/F, antibody 0.90-13.9 nM
[5] = target: recombinant human IL17A protein (human) (UniProt Q16552); assay: ELISA: IL17A coated at different concentrations, antibody fixed at 2 µg/mL, anti-human IgG Fc/HRP; EC50 is on the antigen concentration
[6] = target: recombinant human IL17A/F dimer protein (SinoBiological, Inc., CT047-HNAE) (human) (UniProt Q16552); assay: ELISA: IL17A/F coated at different concentrations, antibody fixed at 2 µg/mL, anti-human IgG Fc/HRP; EC50 is on the antigen concentration
[7] = target: recombinant human IL17A protein (human) (UniProt Q16552); assay: competition ELISA: IL17A coated, competitor IL17RA-His-biotin at 2 µg/mL, antibody varied
[8] = target: recombinant human IL17A/F dimer protein (SinoBiological, Inc., CT047-HNAE) (human) (UniProt Q16552); assay: competition ELISA: IL17RA-Fc coated (competitor), IL17A/F-Biotin at 0.8 µg/mL, antibody varied

Chain of recombinant human IL17A protein (human) (Q16552 24-155 limits assumed): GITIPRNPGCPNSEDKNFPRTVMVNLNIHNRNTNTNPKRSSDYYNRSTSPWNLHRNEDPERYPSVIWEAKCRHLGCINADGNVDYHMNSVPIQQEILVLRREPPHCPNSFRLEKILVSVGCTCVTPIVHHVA
Chain of recombinant human IL17A/F dimer protein (SinoBiological, Inc., CT047-HNAE) (human) (Q16552 24-155 limits assumed, chain 1 of 2): as the sequence (Q16552 24-155 limits assumed) above
Chain of recombinant human IL17A/F dimer protein (SinoBiological, Inc., CT047-HNAE) (human) (Q96PD4 31-163 limits assumed, chain 2 of 2, further chain): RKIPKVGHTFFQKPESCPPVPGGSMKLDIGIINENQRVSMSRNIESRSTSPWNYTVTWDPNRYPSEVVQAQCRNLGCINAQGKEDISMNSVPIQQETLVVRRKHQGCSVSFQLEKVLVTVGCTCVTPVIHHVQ

EC50 (µg/mL), blocking IL17A-induced IL6 secretion of HFF cells [1]: 0.22 µg/mL
Maximum neutralization rate (%), IL17A-induced IL6 secretion of HFF cells [1]: 51.6%
EC50 (µg/mL), blocking IL17A/F-induced IL6 secretion of HFF cells [2]: 2.25 µg/mL
Maximum neutralization rate (%), IL17A/F-induced IL6 secretion of HFF cells [2]: 79.5%
Kd [3]: 95.5 pM
Kd [4]: 1100 pM
Substance: COSENTYX (Norvatis, SHM12) (antibody)

EC50 [5]: 0.0748 µg/mL
EC50 [6]: 0.0639 µg/mL
Substance: COSENTYX biosimilar (SinoCelltech Co., Ltd.) (antibody)

EC50 (µg/mL), blocking IL17A-induced IL6 secretion of HFF cells [1]: 0.19 µg/mL
Maximum neutralization rate (%), IL17A-induced IL6 secretion of HFF cells [1]: 95.9%
EC50 (µg/mL), blocking IL17A/F-induced IL6 secretion of HFF cells [2]: 1.1 µg/mL
Maximum neutralization rate (%), IL17A/F-induced IL6 secretion of HFF cells [2]: 76.3%
IC50 [7]: 0.5 µg/mL
maximum inhibition rate [7]: 89.5%
Substance: Taltz (Eli Lilly) (antibody)

EC50 of blocking IL17A-induced IL-6 secretion of HFF cells [1]: 0.247 µg/mL
maximum inhibition rate of IL17A-induced IL-6 secretion of HFF cells [1]: 97.3%
maximum inhibition rate [8]: 75%
Substance: Taltz biosimilar (SinoCelltech Co., Ltd.) (antibody)
